Data from patent US20210188971A1 (QUIDEL, published 2021).

Target: T1, L1-10 fusion protein (human)
T1 construct: also called L1-10, unlabeled; L1-10 antigen
Assay: indirect sandwich luminescence ELISA, L1-10 held by anti-MBP or StrepMAb on RAM
Experimental: Appropriate diluted standards were prepared along with controls and samples in a Assay Diluent in a separate non-sticky plate. 50 μl or 100 μl of each antibody or antigen (at indicated concentrations) were pipetted to the plate wells. Plates were sealed and incubated for 60 minutes at RT (unless otherwise indicated). The plates were washed with PBST 4×. 50 μl/well of Furimazine substrate was pipetted and incubated for 3 minutes at RT.
The mouse monoclonal antibody served as the anchor for L1-10.

B1: M22_NLuc_HisTag antibody protein (antibody, human IgG1, lambda)
heavy: not shown
light: LTVLTQPPSVSGAPRQRVTISCSGNSSNIGNNAVNWYQQLPGKAPKLLIYYDDQLPSGVSDRFSGSRSGTSASLAIRGLQSEDEADYYCTSWDDSLDSQLFGGGTRLTVLGQPKAAPSVTLFPPSSEELQANKATLVCLISDFYPGAVTVAWKADSSPVKAGVETTTPSKQSNNKYAASSYLSLTPEQWKSHKSYSCQVTHEGSTVEKTVAPTECS
notes: also called M22_Luc; mAb Nluc-His
binding result: binds
